Data: article PMC4937785 (Plant and Cell Physiology, 2016)
Values joined by “and” are separate entries in the source; they are usually repeats but may differ in a detail not shown here. Equal values may be shown once.

Tests used:
native gel or EMSA = target: the molecule itself; experiment: native gel or EMSA
SEC = target: the molecule itself; experiment: SEC

B1: Flavodiiron protein Flv3 (sll0550) in Synechocystis sp. PCC 6803 (natural protein, UniProt Q55393 1-573, looked up)
chain: MFTTPLPPQKRLSTQTEAIAKNITAIRSLDWDRDRFDIEFGLQNGTTYNSYLIQADKVALVDSSHEKFRQLYLDLLQGLIDPQRIDYLIVSHTEPDHSGLVKDILQLNPRITVVATKVALQFLDNFVHQPFERIQVKSGDRLDLGQGHDLEFVSAPNLHWPDTMLTYDPATEILFTCDVFGMHYCSDAVFDIDLGKIAPDYQFYYDCLMGPNARSVLAAMKRMDNLGTISTVANGHGPLLRHNVGELLHRYRHWSESQSKAEKTVVVFYVADYGYGDRLSQAIAKGITKTGVGVDMVDLSSADPQEIQELVGHASGVVLGMPPLQANADLSTNFGAVLAAMQPKQVFGLYESYGGDDEPIDPLRTKFLDLGLREAFKVIKVKDTPSESTYQLCDESGTDLGQNLIQAAKIKQLKSLDSDLEKAIGRISGGLYIITAQKGEVKGAMLASWVSQASFNPPGFTVAVAKDRAIESLMQVGDRFVLNILEEGNYQILMKHFLKRFPPGADRFAGVKTQTASNGSPILTDALAYLECEVASRMECSDHWIVYSQVTNGRVAKAEGLTAVHHRKVGNYY
stoichiometry N (native gel or EMSA): 2

B2: His-tagged Flv3 expressed in Escherichia coli (natural protein, Synechocystis sp. PCC 6803, UniProt Q55393 1-573, looked up)
chain: B1 chain
stoichiometry N (SEC): 2 and 4
